{"source": "patent US20140235820A1", "about": "“METHODS AND COMPOSITIONS FOR MODULATING THE Wnt PATHWAY” (Genentech, Inc., priority 2010, published 2014)", "molecular_target": "T1, LRP6 (Homo sapiens, UniProt O75581)", "T1 construct": "made in house; host or cells: Tni insect cells (baculovirus, secreted)", "T1 sequence (O75581 20-1253)": "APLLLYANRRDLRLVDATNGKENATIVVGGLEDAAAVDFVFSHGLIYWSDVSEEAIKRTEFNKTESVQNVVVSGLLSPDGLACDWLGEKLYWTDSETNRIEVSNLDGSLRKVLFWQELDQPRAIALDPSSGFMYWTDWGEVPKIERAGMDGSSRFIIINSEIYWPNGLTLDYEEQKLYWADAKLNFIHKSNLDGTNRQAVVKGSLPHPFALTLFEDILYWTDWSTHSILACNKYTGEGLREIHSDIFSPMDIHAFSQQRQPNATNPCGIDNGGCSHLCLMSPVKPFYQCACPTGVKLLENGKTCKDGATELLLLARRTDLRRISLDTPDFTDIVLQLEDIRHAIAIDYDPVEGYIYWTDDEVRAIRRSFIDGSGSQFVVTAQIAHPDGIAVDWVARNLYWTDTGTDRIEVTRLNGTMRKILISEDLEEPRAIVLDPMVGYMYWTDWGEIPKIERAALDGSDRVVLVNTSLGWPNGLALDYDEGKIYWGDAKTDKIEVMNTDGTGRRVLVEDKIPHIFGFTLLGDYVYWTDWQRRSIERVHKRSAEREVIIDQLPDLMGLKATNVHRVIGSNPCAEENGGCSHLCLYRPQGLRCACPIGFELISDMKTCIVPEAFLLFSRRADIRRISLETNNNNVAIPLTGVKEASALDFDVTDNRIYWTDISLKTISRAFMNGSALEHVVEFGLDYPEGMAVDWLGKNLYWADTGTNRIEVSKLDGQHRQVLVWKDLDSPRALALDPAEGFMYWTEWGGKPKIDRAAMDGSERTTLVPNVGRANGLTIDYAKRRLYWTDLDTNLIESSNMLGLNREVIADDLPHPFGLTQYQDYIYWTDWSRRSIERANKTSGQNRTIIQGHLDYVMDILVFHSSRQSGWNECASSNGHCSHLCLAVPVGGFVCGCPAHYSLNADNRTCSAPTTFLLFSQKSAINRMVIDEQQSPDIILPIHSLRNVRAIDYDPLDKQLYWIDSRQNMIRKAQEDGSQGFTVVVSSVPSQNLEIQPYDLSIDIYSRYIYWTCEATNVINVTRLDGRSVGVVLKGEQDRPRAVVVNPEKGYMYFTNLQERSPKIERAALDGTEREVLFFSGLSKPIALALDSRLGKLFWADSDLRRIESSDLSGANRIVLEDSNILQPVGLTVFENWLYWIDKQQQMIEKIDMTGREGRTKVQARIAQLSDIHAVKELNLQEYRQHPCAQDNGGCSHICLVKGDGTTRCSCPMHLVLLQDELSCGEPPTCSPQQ", "test": "Biolayer interferometry binding to any LRP6 construct tested", "procedure": "Binding kinetics were measured by biolayer interferometry using an Octet Red instrument (ForteBio) as previously described (11). Streptavidin (SA) biosensors were loaded with biotinylated hLRP6 in 50 mMTris, pH 8, 300 mM NaCl, 5% (v/v) glycerol, and 0.05% (w/v) Triton X-100. The loaded biosensors were washed in the same buffer before carrying out association and dissociation measurements for the indicated times. The Kd of each interaction was determined using steady state-analysis through the Octet Red software v6.3. Each reported value represents an average of three or more experiments at different concentrations, with a fitted experimental curve for which the square of the correlation coefficient (R^2) is above 0.96.\nThe interaction of the different Dkks and sclerostin with various domains of LRP6 was measured using a biolayer interferometry assay (11). Purified receptors contained individual β-propeller-EGF-like units (E1, E2, or E4), two β-propellers (E1E2 or E3E4), or four β-propellers (E1E4))—as follows:\nHuman LRP6: construct E1E4-amino acids A20-Q1253 of LPR6; construct E1E2-amino acids A20-E631 of LPR6; construct E3E4 amino acids E631-Q1253 of LPR6; construct E1-amino acids A20-D325 of LPR6; construct E2-amino acids […]-E631 of LPR6; construct E4-T933-Q1253. The individual LRP6 β-propeller E3 could not be expressed.", "data": [{"substance": "Dkk3: Dickkopf 3, carrier-free protein from R&D Systems", "values": [{"measurement": "binding to any LRP6 construct tested", "result": "failed to bind"}]}]}
